B1: Polycomb group RING finger protein 2 (Homo sapiens), P35227 (parent)
chain: MHRTTRIKITELNPHLMCALCGGYFIDATTIVECLHSFCKTCIVRYLETNKYCPMCDVQVHKTRPLLSIRSDKTLQDIVYKLVPGLFKDEMKRRRDFYAAYPLTEVPNGSNEDRGEVLEQEKGALSDDEIVSLSIEFYEGARDRDEKKGPLENGDGDKEKTGVRFLRCPAAMTVMHLAKFLRNKMDVPSKYKVEVLYEDEPLKEYYTLMDIAYIYPWRRNGPLPLKYRVQPACKRLTLATVPTPSEGTNTSGASECESVSDKAPSPATLPATSSSLPSPATPSHGSPSSHGPPATHPTSPTPPSTASGATTAANGGSLNCLQTPSSTSRGRKMTVNGAPVPPLT
partner: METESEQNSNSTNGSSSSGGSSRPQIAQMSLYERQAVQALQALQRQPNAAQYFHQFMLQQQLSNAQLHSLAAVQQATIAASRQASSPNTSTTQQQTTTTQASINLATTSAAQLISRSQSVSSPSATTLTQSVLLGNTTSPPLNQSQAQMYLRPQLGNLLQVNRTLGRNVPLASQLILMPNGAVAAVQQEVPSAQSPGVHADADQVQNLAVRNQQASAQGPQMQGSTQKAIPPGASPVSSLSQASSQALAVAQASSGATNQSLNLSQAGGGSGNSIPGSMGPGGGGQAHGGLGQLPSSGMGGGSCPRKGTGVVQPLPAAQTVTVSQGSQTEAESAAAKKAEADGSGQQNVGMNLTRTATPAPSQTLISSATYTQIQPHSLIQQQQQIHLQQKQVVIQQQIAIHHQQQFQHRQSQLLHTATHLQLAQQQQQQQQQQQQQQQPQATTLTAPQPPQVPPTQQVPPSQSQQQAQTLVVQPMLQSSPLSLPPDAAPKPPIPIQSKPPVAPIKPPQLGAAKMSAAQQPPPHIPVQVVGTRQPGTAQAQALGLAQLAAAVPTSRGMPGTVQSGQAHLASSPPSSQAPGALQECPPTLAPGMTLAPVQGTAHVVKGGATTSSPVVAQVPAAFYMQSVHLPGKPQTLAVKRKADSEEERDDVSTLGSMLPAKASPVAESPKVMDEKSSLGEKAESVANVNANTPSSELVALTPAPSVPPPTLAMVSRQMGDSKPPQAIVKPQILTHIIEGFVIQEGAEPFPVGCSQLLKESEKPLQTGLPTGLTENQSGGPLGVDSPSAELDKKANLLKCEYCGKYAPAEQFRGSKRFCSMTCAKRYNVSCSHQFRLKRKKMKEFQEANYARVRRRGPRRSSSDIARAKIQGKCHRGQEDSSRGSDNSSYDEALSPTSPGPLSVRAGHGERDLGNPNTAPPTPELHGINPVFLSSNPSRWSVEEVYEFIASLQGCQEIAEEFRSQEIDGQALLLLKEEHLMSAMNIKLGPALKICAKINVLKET
B2: Polycomb complex protein BMI-1 (Homo sapiens), P35226 (parent)
chain: MHRTTRIKITELNPHLMCVLCGGYFIDATTIIECLHSFCKTCIVRYLETSKYCPICDVQVHKTRPLLNIRSDKTLQDIVYKLVPGLFKNEMKRRRDFYAAHPSADAANGSNEDRGEVADEDKRIITDDEIISLSIEFFDQNRLDRKVNKDKEKSKEEVNDKRYLRCPAAMTVMHLRKFLRSKMDIPNTFQIDVMYEEEPLKDYYTLMDIAYIYTWRRNGPLPLKYRVRPTCKRMKISHQRDGLTNAGELESDSGSDKANSPAGGIPSTSSCLPSPSTPVQSPHPQFPHISSTMNGTSNSPSGNHQSSFANRPRKSSVNGSSATSSG
partner: B1 partner

Variants of B1 are the subject of the first assay. The settings on record: with phc1_human PHC1, P78364.
Regarding F165A, the “effect of a mutation on the interaction” value was “decreasing interaction strength”. Regarding R164A, the “effect of a mutation on the interaction” value is “decreasing interaction strength”. Regarding F180D, the “effect of a mutation on the interaction” value is reported as “decreasing interaction strength”.

The variants in a further assay derive from B2. The settings on record: with phc1_human PHC1, P78364.
With F178D, the “effect of a mutation on the interaction” value is reported as “decreasing interaction strength”. As for Y163A, the “effect of a mutation on the interaction” value is reported as “decreasing interaction strength”. In the case of R165A, the “effect of a mutation on the interaction” value is on record as “decreasing interaction strength”.

These data come from IntAct's records for PubMed 23523425.
